Target: Pseudo-nitzschia multiseries ferritin (Pseudo-nitzschia multiseries)
Test: crystal structure; crystals of PmFTN grown by vapor diffusion (0.1 M sodium acetate pH 5.5, ammonium sulfate, NaCl), aerobic or anaerobic, soaked in 2 mM Fe(II) or 2 mM zinc sulfate; 24-mer shell built from 8 (P23) or 6 (P42(1)2) subunits in the asymmetric unit

stoichiometry N: 24 subunits
Substance: Pseudo-nitzschia multiseries ferritin (natural protein)

Reference: PMC3663513
